Measurements published in the nanobody polyreactivity screen of Harvey et al. (2022).

test: yeast display, Sf9 membrane polyspecificity reagent, FACS + sequencing; frameworks hold sequencing errors
Procedure, shortened: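 Genes from sorted yeast were amplified by colony PCR, read by MiSeq 2 × 250 sequencing and filtered on CDR length. These cells carried a synthetic nanobody library in Saccharomyces cerevisiae BJ5465 and were sorted by FACS into low and high (top ~1%) gates on anti-HA and streptavidin fluorescence. Polyreactivity is labelled according to the gate of origin.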

Row | Sequence | polyreactivity (PSR sort gate)
1 | QVQLEESGGGLVQAGGSLRLSCAASGRILAKYAMGWYRPAPRKEREFVDAISYSGGSTYYADSVKGRFTISRDNAKNNVYLLMNRLKPEYTAVYYCAASSYVLYRTRKMYFWGQGTQVTVSS | high polyreactivity
2 | QVQLEESGGGLVQAGGSLRLSCAASGRTFFPYAMGWYRQAPGKERELVAAISHGGRTYYADSVKGRFTISRDNAKNTVYLQMNSLKPEDTAVYYCNALSARSYYWGQGTQVTVSS | high polyreactivity
3 | QVQLEESGGGLVQAGGSLRLSCAASGRTFGLYAMGWYRQAPGKERELVAAITRSDGGTNYADSVKGRFTISRDNAKNTVYVQMNSLKPEDTSVYYCAVDLGYVSDVSWYAYEYWGQGTQVTVSS | low polyreactivity
4 | QVQLEESGGGLVQAGGSLRLSCAASGRTFGSNAMGWYRQAPGKERELVAAIRERGGSTYADSVKGRFTISRDNAKNTVYLQMNSLKPEDTAVYYCAADRSVIWSKNYDYWGQGTQVTVSS | low polyreactivity
5 | QVQLEESGGGLVQAGGSLRLSCAASGRTFGTNAMGWYRQAPGKERELVAAITTNGGRTYYADSVKGRFTISRDNAKNTVYLQMNSLKPEDTAVYYCAKYYQTDTYIYDYWGQGTQVTVSS | low polyreactivity
6 | QVQLEESGGGLVQAGGSLRLSCAASGRTFGYYAMGWYRQAPGKERELVAAISTRSGSTYYADSVKGRFTISRDNAKNTVYLQMISLKPEDTAVYYCAADSYPDYDYWGQGTQVTVSS | low polyreactivity
7 | QVQLEESGGGLVQAGGSLRLSCAASGRTFIYYAMGWYRQATGKEREFVAAITKSGGTTYYADSVKGRFTISRHNAKNTVYLQMNSLKPEDTAVYYCAKTTRRGFALYDYWGQGTQVTVSS | high polyreactivity
8 | QVQLEESGGGLVQAGGSLRLSCAASGRTFRLNVMGWYREAPGKQRELVAAISTRGGDTYYADSVKGRFTISLDNAKNTDYLQMNSLKPEDTALYYCAAEYTYVYDYWGQGTQVTLSS | high polyreactivity
9 | QVQLEESGGGLVQAGGSLRLSCAASGRTFRRNAMGWYRQAPGKERELVADISNGDSTKYADSVKGRFTISRDNAKNTVYLQMHSLIPEDTAVYYCNAQRYRVVVYISHGWQTRNYWGQGTQVTVSS | low polyreactivity
10 | QVQLEESGGGLVQAGGSLRLSCAASGRTFWLYAMGRYRQAPGKEREFVASISSSGDSTYYADSVKGRFTISRDNAKNTVYLQMNSLKPEDTAVYDCAARPSRRYLRNGLDYWGQGTQVTVSS | high polyreactivity
11 | QVQLEESGGGLVQAGGSLRLSCAASGRTFYYNAMGSSRQAPGKERELVAGITYRGGSTYYADSVKGRFTISRDNAKNTVYLQMNSLKPEDTAVYYCAVKYSWLSRFNYWGLGTQVTVSS | high polyreactivity
12 | QVQLEESGGGLVQAGGSLRLSCAASGRTLDYYAMGWYRQAPGKERELVASITSGGSTNYADSVKGRFTISRDNAKNTVYLQMNSLKPEDTAVYYCAADSAFYRDVKSNYWGQGTQVTVSS | low polyreactivity
13 | QVQLEESGGGLVQAGGSLRLSCAASGRTLRVNAIGWYRQAPGKERELVAANSSGGRTNYADSVKGRFTISRDNAKNTVYLQMNSLKPEDTAVYYCAVDRPRFPSRPPYHKYDYWGQGTQVTVSS | low polyreactivity
14 | QVQLEESGGGLVQAGGSLRLSCAASGSIFDLNAMGWYRQAPGKERELVAANSSGGGTYYADSVKGRFTISRDNAKNTVYLQMNSLKPEDTAVYYCAAVGYKGYGYDYWGQGTQVTVSS | high polyreactivity
15 | QVQLEESGGGLVQAGGSLRLSCAASGSIFDSYAMGWYRAAPGKERELVATINTSGGSTYYADSVKGRFTIHDNAKNTVYLQMNSLKPEDTAVYYCNAGRWVYWQNNFGDYGYWGQGTQVTVSS | low polyreactivity
16 | QVQLEESGGGLVQAGGSLRLSCAASGSIFDYYAMGWYRKATGKERELVAAISWSGGSTYYADSVKGRFTISRDNAKNTVYLKMIILKPEDTAVYYCAADSSGIGYSSLYFNWGQGSQVTVSS | low polyreactivity
